The text below walks through data of US20050118668A1 (WISCONSIN ALUMNI RESEARCH FOUNDATION, published 2005).

The assay deals with T1, T4moD (UniProt Q00459 2-103).
T1 construct: also called 11.6 kDa effector protein of the toluene-4-monooxygenase complex
T1 sequence: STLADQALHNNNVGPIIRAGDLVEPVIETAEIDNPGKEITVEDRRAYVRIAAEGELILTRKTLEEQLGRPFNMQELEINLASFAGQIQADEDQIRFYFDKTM
Put plainly: fluorescence anisotropy titration of 0.97 nM apo-fACP with T4moD.

B1: apo-fACP (other)
chain: STIEERVKKIIGEQLGVKQEEVTNNASFVEDLGADSLDTVELVMALEEEFDTEIPDEEAEKITTVQAAIDYINGHQA
notes: mature; also called fACP (apo form, lacking phosphopantetheine)
On to B1, for which the binding result is reported as “no binding”.
